± gives the half width of the 95% confidence interval.
Experiments:
[1] = folding stability dG unfold from trypsin proteolysis; higher = more stable
Procedure, shortened: (§1)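 Sequencing followed digestion of designed mini-proteins with trypsin and chymotrypsin, each at 11 concentrations in threefold dilutions together with a no-protease condition. The mini-proteins were under 80 residues, had no cysteine, sat in a PA-tagged cDNA display construct, and were kept only if AlphaFold2 dimer inter-PAE was above 15. From the counts, Bayesian fitting gave K50, and unfolding free energy was derived against a sequence-predicted unfolded-state K50 and a shared folded-state K50, per protease or combined.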

[2] = folding stability dG unfold from chymotrypsin proteolysis; higher = more stable
Procedure, shortened: as §1

[3] = folding stability dG unfold (combined trypsin and chymotrypsin); higher = more stable
Procedure, shortened: as §1

Sequence	folding stability dG unfold [1]	folding stability dG unfold [2]	folding stability dG unfold [3]
SAGGMLILIKVKNKKYEIEINGKKIEVEEKDGYLIIKVSPEALEALKKIPNLENIEEIKIFPEEELKSAGGS [r8_493_TrROS_Hall]	2.07 ± 0.035 kcal/mol	2.57 ± 0.033 kcal/mol	2.32 ± 0.089 kcal/mol
SAGGSAGGSAGEFELLSVEYFPPIGRVRVAYRRGDLVLVVDFFNPENPEIRPVSLSDELGSAGGSAGGSAGG [r17_145_TrMRF]	2.64 ± 0.067 kcal/mol	2.48 ± 0.057 kcal/mol	2.59 ± 0.18 kcal/mol
SAGGSAGGEEEELTEEERRELERRRRRLEEERRRRRPPRPRLRLTLTVRLPDGSTVTLEVEIRLSAGGSAGG [r6_844_TrROS_Hall]	2.2 ± 0.061 kcal/mol	3.73 ± 0.056 kcal/mol	3.16 ± 0.14 kcal/mol
SAGGSAGGSMSTVSTVTHPDGTPLTVTTTPLPDGTVLATYSAPDGTVVATFDVSTGTTVVVPLSAGGSAGGS [r20_159_JUSTAS]	1.39 ± 0.067 kcal/mol	1.5 ± 0.079 kcal/mol	1.44 ± 0.074 kcal/mol
SAGGMPGVRPVVTVTVLVKFPGPDETKTVTITMRPEELAAGVTPEAAARRVAEALGHDIEILEIERKSAGGS [r16_554_JUSTAS]	1.4 ± 0.04 kcal/mol	1.86 ± 0.031 kcal/mol	1.61 ± 0.088 kcal/mol
SAGGSAKPKITITVTYDKETNTVTVTITFPDGTTLTITVEAETEEEAKKAAKKLVEELLKKLEELESAGGSA [r15_477_TrROS_Hall]	3.46 ± 0.27 kcal/mol	3.4 ± 0.2 kcal/mol	3.52 ± 0.23 kcal/mol
SAGGSAGGSAMLENARPFPIDLPTKYRLRIVLPDGRVLELEYDPKSGVPRLRVVPVEEALKRSAGGSAGGSA [r18_247_TrMRF]	1.19 ± 0.012 kcal/mol	1.59 ± 0.033 kcal/mol	1.46 ± 0.036 kcal/mol
SAGNVTIRISFYPRKDGWFFRIKVHFDGKPRELMIPPDDSAEDLADELEKKLGADVTDIEVEWMPLEDGSAG [r5_181_TrROS]	3.27 ± 0.1 kcal/mol	4.25 ± 0.083 kcal/mol	3.88 ± 0.12 kcal/mol
SAGTVTIGIWIPADDIEQIKELIRSIAEEHGWEVKVDKIEPNPDGQYFVTVTVENPENGKEIKITIWIPSAG [r5_41_TrROS]	2.98 ± 0.056 kcal/mol	3.39 ± 0.044 kcal/mol	3.25 ± 0.11 kcal/mol
SAGGSAGGSKPGKPREIMIPFPDNWFMSIRVWPGRIEIENPDNGKEFEIPIGAPIEIELFPLDSAGGSAGGS [r12_227_TrROS]	1.98 ± 0.035 kcal/mol	1.81 ± 0.095 kcal/mol	1.89 ± 0.17 kcal/mol
SAGGMLPLVVKVKTPDGEEYTFVVAYNPETSELWLPLPKEPTWRNVPLTEASSIPEFQIVEARPLALESAGG [r13_994_TrMRF]	0.348 ± 0.056 kcal/mol	0.943 ± 0.064 kcal/mol	0.761 ± 0.087 kcal/mol
SAGGEKTYMVRIDIEYRTPGKPREIDLMVPIKSPEQAREQLDKIADFLAKEHPDNWRIKVEIYPMEDSAGGS [r16_475_TrROS]	1.28 ± 0.18 kcal/mol	2.49 ± 0.068 kcal/mol	2.16 ± 0.29 kcal/mol
SDRIEIEIWRHPNWWMIKIKVRDDGEPVGTQSFPVDDGMDIEEIADNLLNRNPNYKVEITEIEPMPPPPGSA [r9_364_TrROS]	2.86 ± 0.16 kcal/mol	3.82 ± 0.12 kcal/mol	3.36 ± 0.41 kcal/mol
SAGGSAGGSAGGWVIRVTIKHPNGKKRTIMIPMPPDNIEEVAKNLMPQGYEIKEPEIFPGSAGGSAGGSAGG [r7_159_TrROS]	0.295 ± 0.12 kcal/mol	0.902 ± 0.36 kcal/mol	0.813 ± 0.26 kcal/mol
SAGGSVEVTKTESKGPGGTVTVEALKTVTKFDEKGNPVKEEEVRITRTETYDPNTGKVTTTTTVEGSAGGSA [r2_220_JUSTAS]	-0.0891 ± 0.061 kcal/mol	0.709 ± 0.018 kcal/mol	0.487 ± 0.067 kcal/mol
SAGGSAGGSAPPLKILRPEATVHPDGGVTVVAELEGGYLVVETVTFDPETGTASSSVEIVPLDSAGGSAGGS [r20_15_TrMRF]	-0.813 ± 0.12 kcal/mol	1.03 ± 0.015 kcal/mol	0.705 ± 0.047 kcal/mol
SAGGGKTVVLVTHPDGTPTTITFDPEKPVATITYPDGTTETLPVPPDKTIADLAKALPADYTAVFAPASAGG [r13_696_TrMRF]	-0.338 ± 0.13 kcal/mol	0.696 ± 0.069 kcal/mol	0.419 ± 0.13 kcal/mol
SAGGSASVKVEITEIKSSNPESSSNKIDIPVKVYDPETGKEVLSVEEIAKKIEEENPGKPVGYVPESAGGSA [r2_27_JUSTAS]	0.293 ± 0.093 kcal/mol	0.0963 ± 0.17 kcal/mol	0.281 ± 0.17 kcal/mol
SAGGVPVPPEVEYPISPEAVELAEKLAPELGAKNFKVTVVSVEPGYITVEITLPDTGKTVTVTIPLGSAGGS [r16_281_JUSTAS]	1.5 ± 0.041 kcal/mol	1.987 ± 0.015 kcal/mol	1.82 ± 0.053 kcal/mol
SMKIKIPVLIKVDPSETIEEVLEKVKEIAEEIAKFLESKGGPVEVKADVEPIPEIDYVIVTVEAYVPEEASA [r9_1161_TrMRF]	1.53 ± 0.075 kcal/mol	1.8 ± 0.082 kcal/mol	1.54 ± 0.17 kcal/mol
SAGGSMEEEFAARGATVTIDPEKGVITVTFYEEVTQPDGTPVLRRKGTLTIEVPGNDPSQALAKALEESAGG [r13_924_JUSTAS]	1.41 ± 0.032 kcal/mol	2.1 ± 0.088 kcal/mol	1.96 ± 0.12 kcal/mol

Sequence	folding stability dG unfold [1]	folding stability dG unfold [2]	folding stability dG unfold [3]
SMVTVERPESTKTIDAPPSATVEFDPATGTLRVYSPDGTATTVPLSPTWSIQPSDNSVTVTAPPASPAAPSA [r9_653_JUSTAS]	0.056 ± 0.059 kcal/mol	0.669 ± 0.1 kcal/mol	0.421 ± 0.066 kcal/mol
SAGGSAGGSADELLDKLLNHKWLRDAMEKAPPGMEEIDIELPDGGKIRIRRTPNGGFRLEPSAGGSAGGSAG [r3_124_TrROS]	1.904 ± 0.019 kcal/mol	1.48 ± 0.081 kcal/mol	1.76 ± 0.087 kcal/mol
SAGGSAGGSAGGKIKLTVEKTEDGYLRVTAEDEDTKETVVITLPKGTTLEEALKLLKELSAGGSAGGSAGGS [r10_825_TrROS_Hall]	3.14 ± 0.11 kcal/mol	3.08 ± 0.14 kcal/mol	3.19 ± 0.17 kcal/mol
SAGGMTLEELKEALKKLPPNVKEVKITVVEKNGKLVVVVEVNGKKLVIEFDSEEERKLAEELVKELLSSAGG [r13_287_TrROS_Hall]	3.75 ± 0.32 kcal/mol	3.13 ± 0.16 kcal/mol	3.45 ± 0.24 kcal/mol
SAGGSAGGSAGGSFELVGLVSEFEDENGIPVRVFKAKNPLLGYEFLVVVLPNGEVFFLPSAGGSAGGSAGGS [r10_1123_TrMRF]	2.8 ± 0.053 kcal/mol	3.124 ± 0.014 kcal/mol	2.99 ± 0.089 kcal/mol
SAGDQTITIKIPNAPPGSRVQIMLFDPGKIKGFHEIDPDDPKEVEIKIELPPYTIMIYVADGNVFPIPISAG [r5_646_TrROS]	1.94 ± 0.12 kcal/mol	2.82 ± 0.059 kcal/mol	2.46 ± 0.21 kcal/mol
SADPLSSILSQALSVEFDPETGKVTITTKDKSIVEKALEEGAENATLTESEDDIYTATIDLPPLPEGVLSAG [r14_115_TrMRF]	0.576 ± 0.12 kcal/mol	-0.155 ± 0.085 kcal/mol	0.12 ± 0.39 kcal/mol
SAGSKTISISVPGNWNIEELKAFLSTLPDNVTVYIFYPNKVYVGTVDKKNINLSADSSYDGFKVLVVVPSAG [r5_373_TrMRF]	2 ± 0.06 kcal/mol	3.12 ± 0.028 kcal/mol	2.84 ± 0.083 kcal/mol
SASLVPTEREFELPGGERLRVTTPLDPNSDTPTVTVEKFTEAPDGTVTSTTTTVPPSEVAAVLEALGLRSAG [r14_416_JUSTAS]	0.664 ± 0.023 kcal/mol	0.147 ± 0.045 kcal/mol	0.423 ± 0.052 kcal/mol
SAGGSAGGSPLDIEIKMEFHPDHGYWEMEIKIPGNGREINIHYQYEGGKPQITSPEQILDAIKSAGGSAGGS [r20_131_TrROS]	0.622 ± 0.12 kcal/mol	1.5 ± 0.082 kcal/mol	1.24 ± 0.24 kcal/mol
SAGIEEEVRKLFPDRELEVKVKEKRLKAPNGVPVTLYEVTVTFPDGSRYKLTLTKTPNSVTLSVTPLDASAG [r14_28_JUSTAS]	2.73 ± 0.2 kcal/mol	3.34 ± 0.035 kcal/mol	3.18 ± 0.17 kcal/mol
SAGGSAGGSMSTTETTVTEVTITVRSDGKVSREVKVTVTTTTTITPAGGTATVTTTTTRTPLESAGGSAGGS [r12_409_JUSTAS]	1.01 ± 0.053 kcal/mol	1.3 ± 0.018 kcal/mol	1.19 ± 0.051 kcal/mol
SAGGSAGGSMPVKRELIITVTEPSSGTTRTLVVEVETEEEAEAVVAAVAAVPDRTVTEVRRLASAGGSAGGS [r12_152_JUSTAS]	0.109 ± 0.083 kcal/mol	1.26 ± 0.022 kcal/mol	0.926 ± 0.057 kcal/mol
SAGGSAGGSAGGMIEKIEVTKLPDGTYKVTITIPLPNGPVITKTITIPPSETVEDAIAKLSAGGSAGGSAGG [r7_54_JUSTAS]	2.54 ± 0.04 kcal/mol	2.194 ± 0.012 kcal/mol	2.31 ± 0.046 kcal/mol
SAGISIRFPGMQIEIDEIERDNNKVVIRVEVTMPAKNPNGQPQMMTHTMWIVIKIPPPPPPADPADAKKSAG [r5_70_TrROS]	2.81 ± 0.12 kcal/mol	3.96 ± 0.053 kcal/mol	3.51 ± 0.23 kcal/mol
SAGGSAGGSAKMEIVLEVDTPEEAKEAAKKLAEELKKKGYKVKVEVKKLKNGKYYVKITVDSAGGSAGGSAG [r3_211_TrROS_Hall]	3.33 ± 0.23 kcal/mol	4.84 ± 0.26 kcal/mol	4.66 ± 0.33 kcal/mol
SAGGKELILKLKIEVNGKTLTIEVKVSPEELKKLLDELKKLGIKEIEIESIEFDKETNEIKVKVKVKSAGGS [r8_219_TrROS_Hall]	2.52 ± 0.063 kcal/mol	4.09 ± 0.17 kcal/mol	3.77 ± 0.15 kcal/mol
SAGGKTIYFPISEARNFLKEAIDNGLDNIRIEVFNGDKPREIDIPPGNLDDLIDNIPPNSWVQIEPKSAGGS [r16_636_TrROS]	-0.645 ± 0.095 kcal/mol	0.536 ± 0.089 kcal/mol	0.221 ± 0.072 kcal/mol
SAGGKTIEVWFLFPPGMPPEEVASTIAKLLPPGFKIDVEILEVQPDPGGEDYIIFKATIYYPDDGQPISAGG [r13_12_TrROS]	3.34 ± 0.15 kcal/mol	4.68 ± 0.16 kcal/mol	4.26 ± 0.25 kcal/mol
SAGKRMPVEEIANELAKEFPPGQTREVPIRNEDGGEWITLTVYHPNGKPVWKITIRPDGEIEVEWVPLSAGG [r19_0_TrROS]	0.889 ± 0.042 kcal/mol	2.31 ± 0.024 kcal/mol	1.94 ± 0.088 kcal/mol
SAMPKPALTIEIPLPNGQTVRIDVYYDPETGTYTVNVTRTLPNGEPFTRTYTVESPEEAIKNIEVTDFGSAG [r14_749_TrMRF]	3.29 ± 0.13 kcal/mol	3.18 ± 0.078 kcal/mol	3.24 ± 0.12 kcal/mol

Reference: the supplement of paper PMC12764529
